From US20210171647A1 (WUXI BIOLOGICS SHANGHAI, published 2021)
Positions count from the first letter of the chain named.

Assays:
Experiment in all cases: ELISA, antibody coated, OX40-ECD.His mutant supernatant; relative to silent alanine substitutions;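 also: captured OX40 mutant protein detected with HRP-labelled anti-His antibody, absorbance read-out, scaled to the mean signal of control mutants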
human OX40-ECD.His S57A = biological target: T1, human OX40-ECD.His S57A (human, UniProt P43489 29-214)
T1 construct: extracellular domain; not shown: C-terminal His-tag
T1 sequence (looked up): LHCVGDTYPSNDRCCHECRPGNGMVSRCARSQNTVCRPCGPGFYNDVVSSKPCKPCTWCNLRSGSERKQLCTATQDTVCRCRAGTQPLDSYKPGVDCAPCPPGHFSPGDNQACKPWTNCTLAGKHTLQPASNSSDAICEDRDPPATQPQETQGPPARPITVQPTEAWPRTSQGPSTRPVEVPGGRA

human OX40-ECD.His A173G = biological target: T2, human OX40-ECD.His A173G (human, UniProt P43489 29-214)
T2 construct: extracellular domain; not shown: C-terminal His-tag
T2 sequence (looked up): T1 sequence (looked up) with A29S, A145G

human OX40-ECD.His H44A = biological target: T3, human OX40-ECD.His H44A (human, UniProt P43489 29-214)
T3 construct: extracellular domain; not shown: C-terminal His-tag
T3 sequence (looked up): T1 sequence (looked up) with H16A, A29S

human OX40-ECD.His H30A = biological target: T4, human OX40-ECD.His H30A (human, UniProt P43489 29-214)
T4 construct: extracellular domain; not shown: C-terminal His-tag
T4 sequence (looked up): T1 sequence (looked up) with H2A, A29S

human OX40-ECD.His F133A = biological target: T5, human OX40-ECD.His F133A (human, UniProt P43489 29-214)
T5 construct: extracellular domain; not shown: C-terminal His-tag
T5 sequence (looked up): T1 sequence (looked up) with A29S, F105A

human OX40-ECD.His T105A = biological target: T6, human OX40-ECD.His T105A (human, UniProt P43489 29-214)
T6 construct: extracellular domain; not shown: C-terminal His-tag
T6 sequence (looked up): T1 sequence (looked up) with A29S, T77A

human OX40-ECD.His K152A = biological target: T7, human OX40-ECD.His K152A (human, UniProt P43489 29-214)
T7 construct: extracellular domain; not shown: C-terminal His-tag
T7 sequence (looked up): T1 sequence (looked up) with A29S, K124A

human OX40-ECD.His S77A = biological target: T8, human OX40-ECD.His S77A (human, UniProt P43489 29-214)
T8 construct: extracellular domain; not shown: C-terminal His-tag
T8 sequence (looked up): T1 sequence (looked up) with A29S, S49A

human OX40-ECD.His P135A = biological target: T9, human OX40-ECD.His P135A (human, UniProt P43489 29-214)
T9 construct: extracellular domain; not shown: C-terminal His-tag
T9 sequence (looked up): T1 sequence (looked up) with A29S, P107A

human OX40-ECD.His S161A = biological target: T10, human OX40-ECD.His S161A (human, UniProt P43489 29-214)
T10 construct: extracellular domain; not shown: C-terminal His-tag
T10 sequence (looked up): T1 sequence (looked up) with A29S, S133A

B1: 1.134.9-u1-IgG1L (antibody, V domains shown)
VH: QVQLQESGPGLVKPSGTLSLTCAVSGGSISSYNWWSWVRQPPGKGLEWIGEIYHGGNTNYNPSLKSRVTMSVDNSKNQFSLKLSSVTAADTAVYYCARAPGDWGGSPYFDFWGQGTLVTVSS
VL: SSELTQDPAVSVALGQTVRITCQGDNLRTYYASWYQQKPGQAPILLIYGRNKRPSGIPDRFSGSSSGNTASLTITGAQAEDEAAYYCNSRDSSGNPVVFGGGTKLTVL
notes: fully human IgG1, lambda
- Fold Change (human OX40-ECD.His S57A): 0.963
- Fold Change (human OX40-ECD.His A173G): 0.993
- Fold Change (human OX40-ECD.His H44A): 1
- Fold Change (human OX40-ECD.His H30A): 1.01
- Fold Change (human OX40-ECD.His F133A): 0.627
- Fold Change (human OX40-ECD.His T105A): 0.787
- Fold Change (human OX40-ECD.His K152A): 0.81
- Fold Change (human OX40-ECD.His S77A): 0.879
- Fold Change (human OX40-ECD.His P135A): 0.899
- Fold Change (human OX40-ECD.His S161A): 0.945
